Where a chain is given by its changes, count along the chain named.
Legend:
Details in all cases: protein: recombinant; tags: N-terminal His-SUMO, removed by ULP1; label: FAM; single strand
[1] = target: T1, DDX21 helicase core (D1D2, DDX21-delNC) (human, UniProt Q9NR30 188-563); assay: MST; 2 mM AMPPNP, 2 mM MgCl2; value only in figure; MST: 50 mM Tris pH 7.5, 50 mM KCl, 2 mM MgCl2, 1 mM TCEP, 0.01% NP-40, 0.05 mg/mL BSA, 2 mM AMPPNP, 50 nM FAM-RNA; temperature not given; crosslinking buffer not in material
T1 sequence: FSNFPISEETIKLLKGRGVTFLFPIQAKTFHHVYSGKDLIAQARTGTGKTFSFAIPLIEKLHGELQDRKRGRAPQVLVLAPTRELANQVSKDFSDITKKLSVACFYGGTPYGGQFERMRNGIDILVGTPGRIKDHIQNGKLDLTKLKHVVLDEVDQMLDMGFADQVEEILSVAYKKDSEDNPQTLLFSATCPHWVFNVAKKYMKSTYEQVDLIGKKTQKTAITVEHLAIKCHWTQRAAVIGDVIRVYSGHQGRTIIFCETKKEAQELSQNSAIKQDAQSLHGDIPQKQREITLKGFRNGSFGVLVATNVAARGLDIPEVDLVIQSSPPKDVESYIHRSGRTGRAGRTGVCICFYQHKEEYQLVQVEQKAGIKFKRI

DDX21 core 4R to A = target: T2, DDX21 core 4R to A (human, UniProt Q9NR30 188-563, R255A;R270A;R318A;R476A); assay: UV crosslinking; reduced by more than half; MST: 50 mM Tris pH 7.5, 50 mM KCl, 2 mM MgCl2, 1 mM TCEP, 0.01% NP-40, 0.05 mg/mL BSA, 2 mM AMPPNP, 50 nM FAM-RNA; temperature not given; crosslinking buffer not in material
T2 sequence: T1 sequence with R68A, R83A, R131A, R289A

DDX21 core 3R to A = target: T3, DDX21 core 3R to A (human, UniProt Q9NR30 188-563, R270A;R318A;R476A); assay: as above
T3 sequence: T1 sequence with R83A, R131A, R289A

[2] = target: T4, DDX21 core D339H/E340G (DEV mutant) (human, UniProt Q9NR30 188-563, D339H;E340G); assay: UV crosslinking; highest activity of all; MST: 50 mM Tris pH 7.5, 50 mM KCl, 2 mM MgCl2, 1 mM TCEP, 0.01% NP-40, 0.05 mg/mL BSA, 2 mM AMPPNP, 50 nM FAM-RNA; temperature not given; crosslinking buffer not in material
T4 sequence: T1 sequence with D152H, E153G

DDX21 core del-loop = target: T5, DDX21 core del-loop (human, UniProt Q9NR30 188-563, del401-405); assay: UV crosslinking; retains more than half; MST: 50 mM Tris pH 7.5, 50 mM KCl, 2 mM MgCl2, 1 mM TCEP, 0.01% NP-40, 0.05 mg/mL BSA, 2 mM AMPPNP, 50 nM FAM-RNA; temperature not given; crosslinking buffer not in material
T5 sequence: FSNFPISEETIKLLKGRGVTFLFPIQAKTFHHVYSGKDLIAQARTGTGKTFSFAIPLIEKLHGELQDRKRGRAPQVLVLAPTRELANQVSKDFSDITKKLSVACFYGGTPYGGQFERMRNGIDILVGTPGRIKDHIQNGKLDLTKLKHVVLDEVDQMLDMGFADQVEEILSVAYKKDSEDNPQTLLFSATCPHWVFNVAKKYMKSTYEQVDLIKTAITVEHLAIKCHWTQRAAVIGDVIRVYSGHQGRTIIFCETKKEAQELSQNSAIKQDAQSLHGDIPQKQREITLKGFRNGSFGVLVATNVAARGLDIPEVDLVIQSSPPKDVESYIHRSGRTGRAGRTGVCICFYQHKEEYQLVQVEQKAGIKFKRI

Binder: UUUUUUUUUUUUUUU (ssRNA) [FAM-U15]
- binding result [1]: binds
- binding signal (DDX21 core 4R to A): < 50 % of WT
- binding signal (DDX21 core 3R to A): < 50 % of WT
- binding result [2]: binds
- binding signal (DDX21 core del-loop): > 50 % of WT

Reference: publication PMC7375243, “Structural Basis of Human Helicase DDX21 in RNA Binding, Unwinding, and Antiviral Signal Activation” (Advanced Science, 2020)
